{"source": "the supplement of paper PMC9170038", "tested_on": "MS2 coat protein", "test": "apparent KD of MS2 coat protein; designed switch direction (-1 OFF switch, 1 ON switch): -1; higher = weaker reporter binding", "summary_of_the_method": "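RNA switches sharing common flanks were transcribed by stalled E. coli RNA polymerase on Illumina chips. A doubling series of SNAP-549-labelled MS2 coat protein, from 0.7 or 1.5 nM to 3 µM, was applied in Tris-HCl pH 7.5 buffer with KCl, MgCl2, BSA, DTT, tRNA and Tween-20. Each step lasted 0.8–1.5 h at the bottom of the series and 10–20 min at the top. Normalised cluster fluorescence was curve-fitted, giving apparent KD as the per-design median over clusters.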", "key": {"[1]": {"settings": "Eterna round: R95, input ligand: FMN 200 uM"}, "[2]": {"settings": "Eterna round: R95, input ligand: microRNA oligo, concentration not stated"}, "[3]": {"settings": "Eterna round: R95, input ligand: none"}}}
{"sequence": "ACCUCACAUGAGGAUCACCCAUGUCAGGAUAUAAUUUCAAACAUCAAUCGCGGCGCUGAGAGAAGGGUCAAAAC (Eterna round: R97, puzzle: Exclusion 1)", "values": [{"measurement": "apparent KD of MS2 coat protein", "setting": "input ligand: FMN 200 uM", "value": 15.7, "unit": "nM"}, {"measurement": "apparent KD of MS2 coat protein", "setting": "input ligand: none", "value": 15.9, "unit": "nM"}]}
{"sequence": "GAAAAGGUAGGAUAUACGAAAAAAAAUGGUAGAAAAAAAACACAUGAGGAUCACCCAUGUAGAAGGACCAAAAG [salish99_ex2_r3_071] (puzzle: Exclusion 2)", "values": [{"measurement": "apparent KD of MS2 coat protein", "setting": "[1]", "value": 23, "unit": "nM"}, {"measurement": "apparent KD of MS2 coat protein", "setting": "[2]", "value": 24.6, "unit": "nM"}, {"measurement": "apparent KD of MS2 coat protein", "setting": "[3]", "value": 17.9, "unit": "nM"}]}
{"sequence": "AAACCCUCCGUAAGGAUAUGCGCAGGUAAACCGCUGUAGAAGGUACAUGAGGAUCACCCAUGUUGGACCGUGGA [Eternabot (Original) Solution 35] (Eterna round: R97, puzzle: Brourd's mod of Exclusion 4)", "values": [{"measurement": "apparent KD of MS2 coat protein", "setting": "input ligand: FMN 200 uM", "value": 36, "unit": "nM"}, {"measurement": "apparent KD of MS2 coat protein", "setting": "input ligand: none", "value": 29, "unit": "nM"}]}
{"sequence": "GUAGAGUAAGGAUAUAGAGAAUAGGAUAGAAUGGUUAGAAUCUAGAAGGUACAUGAGGAUCACCCAUGUAAUGU [Excluse me!!!! 7 - Jieux - Exclusion 4] (puzzle: Exclusion 4)", "values": [{"measurement": "apparent KD of MS2 coat protein", "setting": "[2]", "value": 18.7, "unit": "nM"}]}
{"sequence": "AGUAACCGUCACGAAAGUGAUGGUUACACAAGUAAAUGUACAUGAGGAUCACCCAUGUCCUCAUUUGCUCGUCUUAU [Sensor 3 - 46] (puzzle: Sensor v3, turn-off variant 2)", "values": [{"measurement": "apparent KD of MS2 coat protein", "setting": "[1]", "value": 152, "unit": "nM"}, {"measurement": "apparent KD of MS2 coat protein", "setting": "[2]", "value": 373, "unit": "nM"}, {"measurement": "apparent KD of MS2 coat protein", "setting": "[3]", "value": 230, "unit": "nM"}]}
{"sequence": "AAGAAACAUGAGGAUCACCCAUGUGAGGAUAUGAAAAAUAAAAUAAAAGAAAUAAUAAUCAGAAGGCACAAAGG [Mat - Mod of Hog D8] (puzzle: Exclusion 1)", "values": [{"measurement": "apparent KD of MS2 coat protein", "setting": "[1]", "value": 44.5, "unit": "nM"}, {"measurement": "apparent KD of MS2 coat protein", "setting": "[2]", "value": 36.1, "unit": "nM"}, {"measurement": "apparent KD of MS2 coat protein", "setting": "[3]", "value": 30.5, "unit": "nM"}]}
{"sequence": "ACACUGCGAGGAUAUACAUGAGGAUCACCCAUGUUAAGGAAGUCAAGGUUAAUUUAAGGUAGAAGGCGCGUAUU [JR_Ex3_Sub012] (Eterna round: R97, puzzle: Exclusion 3)", "values": [{"measurement": "apparent KD of MS2 coat protein", "setting": "input ligand: FMN 200 uM", "value": 54.6, "unit": "nM"}, {"measurement": "apparent KD of MS2 coat protein", "setting": "input ligand: none", "value": 38.2, "unit": "nM"}]}
{"sequence": "CCCAGAUAGGAAGGAUAUUGUACAUGAGGAUCACCCAUGUAAUAAAUGAGGAUCACGGAUGUAGACAAGAAGGUCCGGAUAAGC [Ostracism 6 - Jieux - Exclusion NG 2] (Eterna round: R96, puzzle: Exclusion NG 2)", "values": [{"measurement": "apparent KD of MS2 coat protein", "setting": "input ligand: FMN 200 uM", "value": 57.5, "unit": "nM"}, {"measurement": "apparent KD of MS2 coat protein", "setting": "input ligand: microRNA oligo, concentration not stated", "value": 29.3, "unit": "nM"}, {"measurement": "apparent KD of MS2 coat protein", "setting": "input ligand: none", "value": 39.5, "unit": "nM"}]}
{"sequence": "UCGUUGUAAAUCAGGUGAUGUCUGUUAGGAUGGACUUUGACAUGAGGAUCACCCAUGUUGCUUUUUGCCCGUCUUAA [JR_SV3TOV2_Sub045] (puzzle: Sensor v3, turn-off variant 2)", "values": [{"measurement": "apparent KD of MS2 coat protein", "setting": "[1]", "value": 33.6, "unit": "nM"}, {"measurement": "apparent KD of MS2 coat protein", "setting": "[2]", "value": 68.5, "unit": "nM"}, {"measurement": "apparent KD of MS2 coat protein", "setting": "[3]", "value": 38.4, "unit": "nM"}]}
{"sequence": "AGUGGGCUAGGAUAUCGAUGAACUCACAUGAGGAUCACCCAUGUGUCUUCGGUGGGCGCGCGAGAAGGAGUGAGAU [Belaange] (puzzle: Exclusion 5)", "values": [{"measurement": "apparent KD of MS2 coat protein", "setting": "[1]", "value": 63.6, "unit": "nM"}, {"measurement": "apparent KD of MS2 coat protein", "setting": "[2]", "value": 26.9, "unit": "nM"}, {"measurement": "apparent KD of MS2 coat protein", "setting": "[3]", "value": 37.9, "unit": "nM"}]}
{"sequence": "CGUCAGUGAGGAUAUGGUAACGUUUACAUGAGGAUCACCCAUGUUUCAUGGGACUAGAGACUAGAAGGCACUGACG [JR_Ex5_Sub030] (Eterna round: R97, puzzle: Exclusion 5)", "values": [{"measurement": "apparent KD of MS2 coat protein", "setting": "input ligand: FMN 200 uM", "value": 439, "unit": "nM"}, {"measurement": "apparent KD of MS2 coat protein", "setting": "input ligand: none", "value": 416, "unit": "nM"}]}
{"sequence": "AUAGUGUGAGGAUAUCGGACCAGUCCAGUUAGGAGCAGGAUCGAGAAGGUACAUGAGGAUCACCCAUGUGACCA [Eternabot (L2) Solution 8] (Eterna round: R97, puzzle: Exclusion 4)", "values": [{"measurement": "apparent KD of MS2 coat protein", "setting": "input ligand: FMN 200 uM", "value": 30.8, "unit": "nM"}, {"measurement": "apparent KD of MS2 coat protein", "setting": "input ligand: none", "value": 16.8, "unit": "nM"}]}
{"sequence": "GAGGGACAUGAGGAUCACCCAUGUGAGGAUAUGUGAGAAGGAUUGGAGAGUGAGUGGGACAGAAGGCGCAAGGG [JR_Exclu1_Sub085] (puzzle: Exclusion 1)", "values": [{"measurement": "apparent KD of MS2 coat protein", "setting": "[1]", "value": 95.4, "unit": "nM"}, {"measurement": "apparent KD of MS2 coat protein", "setting": "[2]", "value": 59.9, "unit": "nM"}, {"measurement": "apparent KD of MS2 coat protein", "setting": "[3]", "value": 78, "unit": "nM"}]}
{"sequence": "AAAUUGUGAGGAUAUUCGAUGAACUCGGAGACGAGUUUAUCGGAGAAGGCACAUGAGGAUCACCCAUGUUCCUU [Mat - Exclusion 4 - JL Mod - D23] (Eterna round: R97, puzzle: Exclusion 4)", "values": [{"measurement": "apparent KD of MS2 coat protein", "setting": "input ligand: FMN 200 uM", "value": 102, "unit": "nM"}, {"measurement": "apparent KD of MS2 coat protein", "setting": "input ligand: none", "value": 18.5, "unit": "nM"}]}
